Results on 2 molecules are retold here after publication doi:10.64898/2025.12.14.694184 (bioRxiv, 2025).

The chains are these.
B1: human TorsinA-StrepTagII-FLAG-StrepTagII (enzyme, UniProt O14656 21-332, looked up)
chain: VEPISLGLALAGVLTGYIYPRLYCLFAECCGQKRSLSREALQKDLDDNLFGQHLAKKIILNAVFGFINNPKPKKPLTLSLHGWTGTGKNFVSKIIAENIYEGGLNSDYVHLFVATLHFPHASNITLYKDQLQLWIRGNVSACARSIFIFDEMDKMHAGLIDAIKPFLDYYDLVDGVSYQKAMFIFLSNAGAERITDVALDFWRSGKQREDIKLKDIEHALSVSVFNNKNSGFWHSSLIDRNLIDYFVPFLPLEYKHLKMCIRVEMQSRGYEIDEDIVSRVAEEMTFFPKEERVFSDKGCKTVFTKLDYYYDD
B2: mouse CLCC1 N-terminal domain dimer (CLCC1-NTD-6×His) (domain or fragment, UniProt Q99LI2 19-184, looked up)
chain: HDDDWIDPTDMLNYDAASGTMRKSQVRSGTSEKKEVSPDSSEAEELSDCLHRLDSLTHKVDSCEKKKMKDYESQSNPVFRRYLNKILIEAGKLGLPDENKVEMRYDAEILLSRQTLLEIQKFLSGEEWKPGALDDALSDILINFKCHDSEAWKWQFEDYFGVDPYN
modifications: inter-molecular disulfide bonds in the dimer

The data set “native gel or EMSA” concerns the molecule itself. Briefly: native gel or EMSA. (A gel shift assay detects complexes by their altered migration in electrophoresis.)
For data set [1], the target named is B1. Briefly: pull-down.
The data set “non-reducing SDS-PAGE” concerns the molecule itself. Briefly: non-reducing SDS-PAGE.

For orientation: stoichiometry N means the number of molecules, sites or subunits per partner or assembly.

B1: the binding result in the data set “native gel or EMSA” is listed as “binds”. For B2, the binding result in data set [1] is “binds”. In addition, the “stoichiometry N” value in “non-reducing SDS-PAGE” is 2.
